pKd: −log10 of the molar value.
Legend:
[1] = biological target: hIL-13Rα and hIL-4R coexpressed on cells (reconstituted high-affinity receptor) (human) (UniProt P24394); assay: Scatchard analysis on CHO-hIL4R cells transfected with hIL-13Rα cDNA, high-affinity site
human IL-13Rβ (human) [2] = biological target: human IL-13Rβ (human) (UniProt Q14627); assay: Scatchard analysis of saturation binding on COS-7 cells transfected with IL-13Rβ cDNA
human IL-13Rα (human) [3] = biological target: human IL-13Rα (human) (UniProt P78552); assay: Scatchard analysis on CHO-hIL4R cells transfected with hIL-13Rα cDNA, low-affinity site (nonassociated IL-13Rα chains)
Sequence of UniProt P78552 (P78552 22-427 limits assumed, form in doubt): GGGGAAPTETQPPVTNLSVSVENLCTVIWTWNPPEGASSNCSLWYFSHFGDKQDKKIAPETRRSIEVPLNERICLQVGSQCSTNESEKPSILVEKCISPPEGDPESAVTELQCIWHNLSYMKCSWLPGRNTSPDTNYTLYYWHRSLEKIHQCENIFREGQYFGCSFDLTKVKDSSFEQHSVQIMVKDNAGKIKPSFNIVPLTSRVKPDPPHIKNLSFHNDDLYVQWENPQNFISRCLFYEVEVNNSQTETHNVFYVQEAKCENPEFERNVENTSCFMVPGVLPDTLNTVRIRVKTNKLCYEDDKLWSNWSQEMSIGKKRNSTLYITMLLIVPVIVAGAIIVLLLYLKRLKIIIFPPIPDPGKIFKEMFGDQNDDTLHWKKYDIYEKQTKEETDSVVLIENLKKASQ

human IL-13Rα (human) [4] = biological target: human IL-13Rα (human) (UniProt P78552); assay: Scatchard analysis of saturation binding on CHO cells transfected with IL-13Rα cDNA
human IL-13Rβ (human) [5] = biological target: human IL-13Rβ (human) (UniProt Q14627); assay: Scatchard analysis of saturation binding of 125I-labelled IL-13 on Caki-1 cells
human IL-13Rα (human) [6] = biological target: human IL-13Rα (human) (UniProt P78552); assay: radioligand binding on CHO cells; the basis of this value is not explained

Sequence of UniProt Q14627 (Q14627 27-380 limits assumed, form in doubt): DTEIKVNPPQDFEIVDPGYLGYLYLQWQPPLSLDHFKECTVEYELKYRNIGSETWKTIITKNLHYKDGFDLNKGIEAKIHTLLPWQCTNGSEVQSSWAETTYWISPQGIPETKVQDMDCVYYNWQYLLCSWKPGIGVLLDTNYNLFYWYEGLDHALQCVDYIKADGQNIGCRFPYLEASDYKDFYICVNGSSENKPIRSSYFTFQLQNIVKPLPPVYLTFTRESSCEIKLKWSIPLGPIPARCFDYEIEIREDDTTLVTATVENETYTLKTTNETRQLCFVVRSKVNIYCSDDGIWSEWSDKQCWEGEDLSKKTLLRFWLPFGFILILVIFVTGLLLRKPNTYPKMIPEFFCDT

“[125I][Phe43]-IL-13-GlyTyrGlyTyr (from UniProt P35225 35-146) (ligand)” was tested, and the pKd [1] was 10.64, the pKd (human IL-13Rβ (human) [2]) was 9.60 and the pKd (human IL-13Rα (human) [3]) was 8.38. It also gave a pKd (human IL-13Rα (human) [4]) of 8.35, a pKd (human IL-13Rβ (human) [5]) of 9.35 and a pKd (human IL-13Rα (human) [6]) of 8.12.
